Measured values: the supplement of paper PMC10724198
± gives the standard deviation of the averaged measurements.

Tested on: Saccharomyces cerevisiae
Experiment: protein stability index of tFT-peptide fusion (C-terminal peptide) (PSI (0-1 scale)); higher = more stable (slower turnover)
Details: temperature: 30 C
Description: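 MPS profiling in S. cerevisiae of the yeast C-terminome library: the last 12 aa of each annotated ORF are fused to the C-terminus of a sfGFP-mCherry timer, after a GGGS linker. Cells are FACS-sorted into 8 mCherry/sfGFP bins and deep-sequenced. PSI runs from 0 (unstable) to 1 (stable); wild type and das1Δ backgrounds, two technical replicates each.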

[1] = genetic background: das1 deletion

| Sequence | protein stability index [1] | protein stability index (genetic background: wild type) |
| --- | --- | --- |
| YDKESDDRKCCL [CTR3 C-terminal 12 aa] | 0.681 ± 0.0083 | 0.675 ± 0.034 |
| CGVSWKSGVVKL [PXP2 C-terminal 12 aa] | 0.7093 ± 0.0022 | 0.716 ± 0.031 |
| MNSAMNVQPTGF [CHC1 C-terminal 12 aa] | 0.6951 ± 0.0016 | 0.662 ± 0.033 |
| IYYMEQMLGKTQ [HSK3 C-terminal 12 aa] | 0.696 ± 0.038 | 0.696 ± 0.024 |
| LLSVDGWRTDQL [QRI7 C-terminal 12 aa] | 0.721 ± 0.014 | 0.758 ± 0.031 |
| IEALYKLVEEKM [NQM1 C-terminal 12 aa] | 0.701 ± 0.017 | 0.6797 ± 0.0027 |
| ALDKYLIEIHHW [NPR3 C-terminal 12 aa] | 0.718 ± 0.041 | 0.728 ± 0.013 |
| LNWLIKGILTED [HFI1 C-terminal 12 aa] | 0.753 ± 0.033 | 0.675 ± 0.039 |
| HCGARLTVIPKK [YER137C C-terminal 12 aa] | 0.693 ± 0.016 | 0.688 ± 0.028 |
| DAVAEEVKKILA [LEU2 C-terminal 12 aa] | 0.689 ± 0.018 | 0.68 ± 0.0084 |
| VYSIESRVLGHN [OAC1 C-terminal 12 aa] | 0.679 ± 0.015 | 0.676 ± 0.055 |
| VDFLSKKLLKLR [YFL041W-A C-terminal 12 aa] | 0.694 ± 0.0088 | 0.708 ± 0.0078 |
| GAVYFFSKARKA [COX26 C-terminal 12 aa] | 0.7207 ± 0.0023 | 0.654 ± 0.037 |
| SEINDDFHQWAQ [DEP1 C-terminal 12 aa] | 0.727 ± 0.021 | 0.698 ± 0.0071 |
| GNNNCPLHMDYI [STE5 C-terminal 12 aa] | 0.7274 ± 0.0071 | 0.723 ± 0.015 |
| AKFDGHAKTCHI [YBR051W C-terminal 12 aa] | 0.717 ± 0.021 | 0.70733 ± 5e-06 |
| VTNPKGRLALEA [RPL32 C-terminal 12 aa] | 0.6613 ± 0.0025 | 0.686 ± 0.026 |
| FLWEMFELKLYL [YMR119W-A C-terminal 12 aa] | 0.7071 ± 0.0016 | 0.71 ± 0.036 |
| VESKFTEKIKSM [RPC19 C-terminal 12 aa] | 0.6704 ± 0.0024 | 0.559 ± 0.027 |
| LYAQLRENGLVP [SNU114 C-terminal 12 aa] | 0.695 ± 0.035 | 0.683 ± 0.038 |
| KTATTLPGRRFV [LUC7 C-terminal 12 aa] | 0.6923 ± 0.0011 | 0.704 ± 0.017 |

| Sequence | protein stability index [1] | protein stability index (genetic background: wild type) |
| --- | --- | --- |
| LSDSHYELNAES [PMT5 C-terminal 12 aa] | 0.712 ± 0.033 | 0.706 ± 0.044 |
| TTVDRTGNGAFW [YLR154C-H C-terminal 12 aa] | 0.703 ± 0.017 | 0.723 ± 0.036 |
| NEDDYLAVKYVL [FES1 C-terminal 12 aa] | 0.687 ± 0.018 | 0.696 ± 0.044 |
| QAKKSNSCCIIM [YKT6 C-terminal 12 aa] | 0.732 ± 0.034 | 0.766 ± 0.06 |
| KMVLSHMKEKKD [YGL140C C-terminal 12 aa] | 0.688 ± 0.011 | 0.682 ± 0.017 |
| VKKCWEKEKDGI [MKK2 C-terminal 12 aa] | 0.675 ± 0.018 | 0.663 ± 0.026 |
| IKRRSNVGVVML [NMT1 C-terminal 12 aa] | 0.6647 ± 0.003 | 0.6363 ± 0.0032 |
| KEMWITGKIVED [IML1 C-terminal 12 aa] | 0.672 ± 0.021 | 0.6639 ± 0.0055 |
| LFVTDGSLLLDL [EDC3 C-terminal 12 aa] | 0.703 ± 0.014 | 0.685 ± 0.032 |
| IELQLTEIPKHK [FIN1 C-terminal 12 aa] | 0.701 ± 0.022 | 0.727 ± 0.085 |
| FIAHLILTDALK [ULP1 C-terminal 12 aa] | 0.64 ± 0.025 | 0.691 ± 0.039 |
| NVFNPDQPRMGP [YLR154W-A C-terminal 12 aa] | 0.711 ± 0.017 | 0.711 ± 0.018 |
| LSVEEDRDVQMT [APC5 C-terminal 12 aa] | 0.684 ± 0.013 | 0.729 ± 0.054 |
| KDEPVKAHNKLK [SAS5 C-terminal 12 aa] | 0.693 ± 0.011 | 0.654 ± 0.023 |
| YLKRCCYHPMQN [YIL020C-A C-terminal 12 aa] | 0.72572 ± 0.00065 | 0.679 ± 0.035 |
| GWEVLSVYSFTR [MTQ2 C-terminal 12 aa] | 0.727 ± 0.042 | 0.737 ± 0.098 |
| NSARKRVFGTVI [DIP2 C-terminal 12 aa] | 0.6997 ± 0.0036 | 0.655 ± 0.0069 |
| IQELVNTIRELQ [YPL077C C-terminal 12 aa] | 0.69 ± 0.018 | 0.642 ± 0.0078 |
| VDIALYLTRSQT [YGR039W C-terminal 12 aa] | 0.699 ± 0.017 | 0.694 ± 0.011 |
| NWSNQQINVQSS [PHM8 C-terminal 12 aa] | 0.7172 ± 0.0032 | 0.674 ± 0.018 |
